For data set [1], the system named is HeLa Kyoto. Kind of data set: thermal stability score vs G1/S (z-score of summed log2 fold changes over temperatures); higher = more thermally stable than in G1/S.
Data set [2] concerns HeLa Kyoto. Kind of data set: solubility in G1/S (NP-40 vs SDS abundance) (log2 ratio); higher = more soluble. The following applies: cell cycle stage: G1/S.
Data set [3] has as its system HeLa Kyoto. Kind of data set: solubility change mitosis vs G1/S (difference of NP-40 vs SDS log2 ratios) (log2 ratio difference); higher = more soluble in mitosis.
Data set [4] relates to HeLa Kyoto. Kind of data set: melting temperature (median over replicates), in situ; higher = more thermally stable.
[5] abbreviates: cell cycle stage: early G1 (4.5 h after nocodazole release).
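Wherever melting temperature (median over replicates), in situ is given: HeLa Kyoto cells synchronized by double thymidine or nocodazole block, proteins quantified by TMT10plex mass spectrometry, three independent biological replicates.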
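Wherever solubility change mitosis vs G1/S (difference of NP-40 vs SDS log2 ratios) is given: synchronized HeLa Kyoto cells (double thymidine block for G1/S, nocodazole release for mitosis), protein amounts in NP-40 versus SDS lysates quantified by mass spectrometry, three biological replicates.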
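Wherever solubility in G1/S (NP-40 vs SDS abundance) is given: HeLa Kyoto cells arrested at G1/S by double thymidine block, proteins quantified by TMT10plex mass spectrometry in mild NP-40 versus SDS extracts, three biological replicates.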
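Wherever thermal stability score vs G1/S (z-score of summed log2 fold changes over temperatures) is given: synchronized HeLa Kyoto cells, proteins quantified by TMT10plex mass spectrometry, three biological replicates, mitosis taken 0.5 h after nocodazole release, G1/S directly after double thymidine block.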

On to “MAHSKTRTNDGKITYPPGVKEISDKISKEEMVRRLKMVVKTFMDMDQDSEEEKELYLNLALHLASDFFLKHPDKDVRLLVACCLADIFRIYAPEAPYTSPDKLKDIFMFITRQLKGLEDTKSPQFNRYFYLLENIAWVKSYNICFELEDSNEIFTQLYRTLFSVINNGHNQKVHMHMVDLMSSIICEGDTVSQELLDTVLVNLVPAHKNLNKQAYDLAKALLKRTAQAIEPYITNFFNQVLMLGKTSISDLSEHVFDLILELYNIDSHLLLSVLPQLEFKLKSNDNEERLQVVKLLAKMFGAKDSELASQNKPLWQCYLGRFNDIHVPIRLECVKFASHCLMNHPDLAKDLTEYLKVRSHDPEEAIRHDVIVSIVTAAKKDILLVNDHLLNFVRERTLDKRWRVRKEAMMGLAQIYKKYALQSAAGKDAAKQIAWIKDKLLHIYYQNSIDDRLLVERIFAQYMVPHNLETTERMKCLYYLYATLDLNAVKALNEMWKCQNLLRHQVKDLLDLIKQPKTDASVKAIFSKVMVITRNLPDPGKAQDFMKKFTQVLEDDEKIRKQLEVLVSPTCSCKQAEGCVREITKKLGNPKQPTNPFLEMIKFLLERIAPVHIDTESISALIKQVNKSIDGTADDEDEGVPTDQAIRAGLELLKVLSFTHPISFHSAETFESLLACLKMDDEKVAEAALQIFKNTGSKIEEDFPHIRSALLPVLHHKSKKGPPRQAKYAIHCIHAIFSSKETQFAQIFEPLHKSLDPSNLEHLITPLVTIGHIALLAPDQFAAPLKSLVATFIVKDLLMNDRLPGKKTTKLWVPDEEVSPETMVKIQAIKMMVRWLLGMKNNHSKSGTSTLRLLTTILHSDGDLTEQGKISKPDMSRLRLAAGSAIVKLAQEPCYHEIITLEQYQLCALAINDECYQVRQVFAQKLHKGLSRLRLPLEYMAICALCAKDPVKERRAHARQCLVKNINVRREYLKQHAAVSEKLLSLLPEYVVPYTIHLLAHDPDYVKVQDIEQLKDVKECLWFVLEILMAKNENNSHAFIRKMVENIKQTKDAQGPDDAKMNEKLYTVCDVAMNIIMSKSTTYSLESPKDPVLPARFFTQPDKNFSNTKNYLPPEMKSFFTPGKPKTTNVLGAVNKPLSSAGKQSQTKSSRMETVSNASSSSNPSSPGRIKGRLDSSEMDHSENEDYTMSSPLPGKKSDKRDDSDLVRSELEKPRGRKKTPVTEQEEKLGMDDLTKLVQEQKPKGSQRSRKRGHTASESDEQQWPEEKRLKEDILENEDEQNSPPKKGKRGRPPKPLGGGTPKEEPTMKTSKKGSKKKSGPPAPEEEEEEERQSGNTEQKSKSKQHRVSRRAQQRAESPESSAIESTQSTPQKGRGRPSKTPSPSQPKKNVRVGRSKQAATKENDSSEEVDVFQGSSPVDDIPQEETEEEEVSTVNVRRRSAKRERR [PDS5B]”, for which the results for the thermal stability score in the data set on HeLa Kyoto [1] (setting [5]) and in the data set on HeLa Kyoto [1] (cell cycle stage: mitosis) were -0.564 and 0.534, respectively. Besides, in the data set on HeLa Kyoto [2], the “solubility in G1/S (log2)” value was -0.302. The “solubility change mitosis (log2)” value in the data set on HeLa Kyoto [3] worked out at 0.216. Also, the melting temperature in the data set on HeLa Kyoto [4] (cell cycle stage: G1/S) was 49.2 °C; in the data set on HeLa Kyoto [4] (cell cycle stage: mitosis) it was 49.4 °C.

With “MAHVGSRKRSRSRSRSRGRGSEKRKKKSRKDTSRNCSASTSQGRKASTAPGAEASPSPCITERSKQKARRRTRSSSSSSSSSSSSSSSSSSSSSSSSSDGRKKRGKYKDKRRKKKKKRKKLKKKGKEKAEAQQVEALPGPSLDQWHRSAGEEEDGPVLTDEQKSRIQAMKPMTKEEWDARQSIIRKVVDPETGRTRLIKGDGEVLEEIVTKERHREINKQATRGDCLAFQMRAGLLP [ARL6IP4]”, the thermal stability score in the data set with HeLa Kyoto [1] (setting [5]) is -1.78; in the data set with HeLa Kyoto [1] (cell cycle stage: mitosis) it was -3.1. Also, the “solubility in G1/S (log2)” value in the data set with HeLa Kyoto [2] was -0.997. Further, the “solubility change mitosis (log2)” value in the data set on HeLa Kyoto [3] came out at 0.853. In addition, the melting temperature is 52.6 °C in the data set with HeLa Kyoto [4] (cell cycle stage: G1/S) and 52 °C with HeLa Kyoto [4] (cell cycle stage: mitosis).

As for “MAIKSIASRLRGSRRFLSGFVAGAVVGAAGAGLAALQFFRSQGAEGALTGKQPDGSAEKAVLEQFGFPLTGTEARCYTNHALSYDQAKRVPRWVLEHISKSKIMGDADRKHCKFKPDPNIPPTFSAFNEDYVGSGWSRGHMAPAGNNKFSSKAMAETFYLSNIVPQDFDNNSGYWNRIEMYCRELTERFEDVWVVSGPLTLPQTRGDGKKIVSYQVIGEDNVAVPSHLYKVILARRSSVSTEPLALGAFVVPNEAIGFQPQLTEFQVSLQDLEKLSGLVFFPHLDRTSDIRNICSVDTCKLLDFQEFTLYLSTRKIEGARSVLRLEKIMENLKNAEIEPDDYFMSRYEKKLEELKAKEQSGTQIRKPS [EXOG]”, the thermal stability score is 2.74 in the data set with HeLa Kyoto [1] (setting [5]) and -1.52 with HeLa Kyoto [1] (cell cycle stage: mitosis). In addition, in the data set with HeLa Kyoto [2], the “solubility in G1/S (log2)” value was determined as 0.21. In the data set with HeLa Kyoto [3], the “solubility change mitosis (log2)” value is -0.0598. For the same sequence, the figures for the melting temperature in the data set with HeLa Kyoto [4] (cell cycle stage: G1/S) and in the data set on HeLa Kyoto [4] (cell cycle stage: mitosis) were 52.8 °C and 51.3 °C, respectively.

For “MAIQFRSLFPLALPGMLALLGWWWFFSRKKGHVSSHDEQQVEAGAVQLRADPAIKEPLPVEDVCPKVVSTPPSVTEPPEKELSTVSKLPAEPPALLQTHPPCRRSESSGILPNTTDMRLRPGTRRDDSTKLELALTGGEAKSIPLECPLSSPKGVLFSSKSAEVCKQDSPFSRVPRKVQPGYPVVPAEKRSSGERARETGGAEGTGDAVLGEKVLEEALLSREHVLELENSKGPSLASLEGEEDKGKSSSSQVVGPVQEEEYVAEKLPSRFIESAHTELAKDDAAPAPPVADAKAQDRGVEGELGNEESLDRNEEGLDRNEEGLDRNEESLDRNEEGLDRNEEIKRAAFQIISQVISEATEQVLATTVGKVAGRVCQASQLQGQKEESCVPVHQKTVLGPDTAEPATAEAAVAPPDAGLPLPGLPAEGSPPPKTYVSCLKSLLSSPTKDSKPNISAHHISLASCLALTTPSEELPDRAGILVEDATCVTCMSDSSQSVPLVASPGHCSDSFSTSGLEDSCTETSSSPRDKAITPPLPESTVPFSNGVLKGELSDLGAEDGWTMDAEADHSGGSDRNSMDSVDSCCSLKKTESFQNAQAGSNPKKVDLIIWEIEVPKHLVGRLIGKQGRYVSFLKQTSGAKIYISTLPYTQSVQICHIEGSQHHVDKALNLIGKKFKELNLTNIYAPPLPSLALPSLPMTSWLMLPDGITVEVIVVNQVNAGHLFVQQHTHPTFHALRSLDQQMYLCYSQPGIPTLPTPVEITVICAAPGADGAWWRAQVVASYEETNEVEIRYVDYGGYKRVKVDVLRQIRSDFVTLPFQGAEVLLDSVMPLSDDDQFSPEADAAMSEMTGNTALLAQVTSYSPTGLPLIQLWSVVGDEVVLINRSLVERGLAQWVDSYYTSL [AKAP1]”, the results for the thermal stability score in the data set with HeLa Kyoto [1] (setting [5]) and with HeLa Kyoto [1] (cell cycle stage: mitosis) were 0.769 and 1.64, respectively. Further, in the data set with HeLa Kyoto [2], the “solubility in G1/S (log2)” value was -0.0583. For the same sequence, the “solubility change mitosis (log2)” value with HeLa Kyoto [3] was -0.0592. The melting temperature in the data set with HeLa Kyoto [4] (cell cycle stage: G1/S) is 50.3 °C; in the data set on HeLa Kyoto [4] (cell cycle stage: mitosis), 50.6 °C.

On to “MAITLEEAPWLGWLLVKALMRFAFMVVNNLVAIPSYICYVIILQPLRVLDSKRFWYIEGIMYKWLLGMVASWGWYAGYTVMEWGEDIKAVSKDEAVMLVNHQATGDVCTLMMCLQDKGLVVAQMMWLMDHIFKYTNFGIVSLVHGDFFIRQGRSYRDQQLLLLKKHLENNYRSRDRKWIVLFPEGGFLRKRRETSQAFAKKNNLPFLTNVTLPRSGATKIILNALVAQQKNGSPAGGDAKELDSKSKGLQWIIDTTIAYPKAEPIDIQTWILGYRKPTVTHVHYRIFPIKDVPLETDDLTTWLYQRFVEKEDLLSHFYETGAFPPSKGHKEAVSREMTLSNLWIFLIQSFAFLSGYMWYNIIQYFYHCLF [LPGAT1]”, for which the thermal stability score is 0.187 in the data set on HeLa Kyoto [1] (setting [5]) and -0.757 in the data set with HeLa Kyoto [1] (cell cycle stage: mitosis). Also, in the data set on HeLa Kyoto [2], the “solubility in G1/S (log2)” value was -0.142. In the data set on HeLa Kyoto [3], the “solubility change mitosis (log2)” value is -0.152. In addition, the melting temperature came to 51.1 °C in the data set with HeLa Kyoto [4] (cell cycle stage: G1/S) and 51.3 °C with HeLa Kyoto [4] (cell cycle stage: mitosis).

In the case of “MAKAYDHLFKLLLIGDSGVGKTCLIIRFAEDNFNNTYISTIGIDFKIRTVDIEGKKIKLQVWDTAGQERFKTITTAYYRGAMGIILVYDITDEKSFENIQNWMKSIKENASAGVERLLLGNKCDMEAKRKVQKEQADKLAREHGIRFFETSAKSSMNVDEAFSSLARDILLKSGGRRSGNGNKPPSTDLKTCDKKNTNKCSLG [RAB13]”, the thermal stability score was -0.483 with HeLa Kyoto [1] (setting [5]) and -1.07 in the data set on HeLa Kyoto [1] (cell cycle stage: mitosis). For the same sequence, the “solubility in G1/S (log2)” value in the data set on HeLa Kyoto [2] is -0.134. The “solubility change mitosis (log2)” value in the data set with HeLa Kyoto [3] is -0.198. For the same sequence, the values for the melting temperature with HeLa Kyoto [4] (cell cycle stage: G1/S) and in the data set with HeLa Kyoto [4] (cell cycle stage: mitosis) were 53.5 °C and 53 °C, respectively.
